Results published in US20040081651A1 (Biogen, published 2004).

Assays:
[1] = target: T1, α1β1 integrin (VLA-1) in lysate of α1-transfected K562 cells (human, UniProt P56199 29-1179; P05556 21-798); test: electrochemiluminescence; inhibition of α1β1 (K562-α1 lysate) binding to type IV collagen beads (±0.002 in r14)
[2] = target: T2, human VLA-1 (α1β1 integrin) on K562 cells transfected with the α1 integrin subunit (human, UniProt P56199 29-1179; P05556 21-798); test: FACS on human α1-transfected K562 cells
T2 construct: whole, on cells; also called huVLA-1; K562-α1

[3] = target: T3, human α1-I domain-GST fusion protein (human, UniProt P56199 151-364); test: ELISA on immobilized α1 I domain-GST (±0.058 in r14)
T3 construct: Expressed in E. coli; not shown: glutathione S-transferase of vector pGEX4t-i (Pharmacia), with a thrombin cleavage site at the junction

[4] = target: T3, human α1-I domain-GST fusion protein; test: ELISA; competition with biotinylated mAQC2 (competitor) for immobilized α1 I domain-GST
[5] = target: T2, human VLA-1 (α1β1 integrin) on K562 …; test: FACS of VLA-1-expressing K562α1 cells stained with conditioned medium of transfected 293-EBNA cells; mean MFI normalized to chAQC2 blocked; average of two transfections
[6] = target: T3, human α1-I domain-GST fusion protein; test: electrochemiluminescence; inhibition of α1 I domain-GST binding to type IV collagen beads (±0.007 in r14)
[7] = target: T3, human α1-I domain-GST fusion protein; test: electrochemiluminescence; inhibition of α1 I domain-GST binding to type IV collagen beads (±0.011 in r12)
[8] = target: T1, α1β1 integrin (VLA-1) in lysate of …; test: electrochemiluminescence; inhibition of α1β1 (K562-α1 lysate) binding to type IV collagen beads (±0.014 in r12)
[9] = target: T3, human α1-I domain-GST fusion protein; test: ELISA on immobilized α1 I domain-GST (±0.015 in r12)

IC50 [1]	EC50 [2]	EC50 [3]	IC50 [4]	Relative MFI [5]	IC50 [6]	IC50 [7]	IC50 [8]	EC50 [9]	Binder
0.071 nM	0.25 nM	0.176 nM	30 nM	1 relative to chAQC2 blocked	0.027 nM	–	–	–	chAQC2 (murine-human chimeric AQC2, blocked light chain; pAND099 + pAND102) (antibody, V domains shown, also called Chimera) VH: DVKVVESGGGLVKPGGSLKLACAASGFSFSRYTMSWVRQIPEKRLEWVATISGGGHTYYLDSVKGRFTISRDNAKNTLYLQMSSLRSEDTAMYYCTRGFGDGGYFDVWGQGTTVTVSS VL: QIVLTQFPALMSASPGEKVTMTCSASSSVNHMFWYQQKPKSSPKPWIYLTSNLASGVPARFSGSGSGTSYSLTISSMEAEDAATYYCQQWSGNPWTFGGGTKLEIK
–	–	–	38 nM	–	–	0.029 nM	0.0726 nM	0.061 nM	monoclonal antibody AQC2 (mAQC2) (antibody, mouse IgG1, V domains shown, Hybridoma ATCC PTA3273; also called murine AQC2) VH: DVKVVESGGGLVKPGGSLKLACAASGFSFSRYTMSWVRQIPEKRLEWVATISGGGHTYYLDSVKGRFTISRDNAKNTLYLQMSSLRSEDTAMYYCTRGFGDGGYFDVWGQGTTVTVSS VL: QIVLTQFPALMSASPGEKVTMTCSASSSVNHMFWYQQKPKSSPKPWIYLTSNLASGVPARFSGSGSGTSYSLTISSMEAEDAATYYCQQWSGNPWTFGGGTKLEIK
